Results as given in patent US20070134249A1 (GENITOPE, published 2007).

Columns and labels:
Assay in all cases: ELISA
Set-up in all cases: key: 0 = <0.5 OD, 1 = 0.5-1.0 OD, 4 = 1-4 OD
899 = target: T1, 899
T1 construct: H4-34 K4-1; also called PIN899
Excerpt: (§1) Before specificity screening, all of the clonal immunogen-positive hybridoma supernatants were re-screened on the immunogen, a non-family member Id protein, and KLH, if animals were immunized with Id protein that has been conjugated KLH. As described above, this screen identifies HC-specific clones but not mAbs against the light chain constant region. Clones identified positive to the immunogen and KLH were […]. Those found positive to the immunogen but not to the non-family member Id protein or KLH were tittered on the immunogen. In addition to normalizing for different binding affinities and concentrations, each hybridoma supernatant was titered on the fully human form of the Id protein used as the immunogen(s) for the V regions. The titer or dilution resulting in an ELISA absorbance of 2.5 to 3 OD after 30 min. incubation time was then used. Hybridoma specificity was determined by screening against available Id proteins expressing the same HV and KV or LV as well as different HV, KV and LV. The final ELISA results are expressed as follows: 0 (<0.5 OD), 1 (0.5-1.0 OD), or 4 (1-4 OD). Positive hybridoma supernatants are categorized according to specificity: anti-Id, anti-constant region (HC, KC or LC), or V region (HV, KV, LV family or family member).
(§2) In general, the fully human Id protein or proteins containing the immunogen V regions were coated onto 96-well ELISA plates at 2.5-5 ug/mL in carbonate buffer pH 9.6 and incubated at 4° C. for up to 14 days. On the day of the ELISA, plates were brought to RT and blocked with Tris-Tween-20, pH 7.6 for 15-60 min. at RT. Following a NaCl and Triton X-100 wash, diluted hybridoma cell culture supernatants were incubated overnight at 4° C. Hybridoma supernatant dilutions ranged from 1:2 to 1:25 and were prepared in PBS with 5% BSA. Plates were washed and incubated with HRP-conjugated goat anti-mouse IgG-specific detecting antibody. A chromogenic substrate (TMB) was used to measure the amount of mouse antibody bound to each well. The reaction was stopped at or before 30 minutes with IN H2SO4 and plates were read immediately. Absorbency readings at 450 nm ranging between 0-4 OD and using Molecular Devices plate reader and SOFTMAX PRO software.

1014 = target: T2, 1014
T2 construct: H3-53 K4-1; also called PIN1014
Excerpt: as §1, §2

170 = target: T3, 170
T3 construct: H4-34 K4-1; also called PIN170
Excerpt: as §1, §2

805 = target: T4, 805
T4 construct: H3-7 K3-11; also called PIN805
Excerpt: as §1, §2

786 = target: T5, 786
T5 construct: H3-7 K3-15; also called PIN786
Excerpt: as §1, §2

[1] = target: T6, PIN185 fully human Id protein (human)
T6 construct: Patient-derived idiotype immunoglobulin used as control antigen in SPR
Excerpt: as §1, §2

791 = target: T7, 791
T7 construct: H3-30 K4-1; also called PIN791
Excerpt: as §1, §2

- grade 899: 4
- grade 1014: 4
- grade 170: 4
- grade 805: 4
- grade 786: 4
- grade [1]: 4
- grade 791: 4
B1: mAb clone 12C3 (antibody, V domains shown)
VH: EVKLVESGGGLVQPGGSLSLSCAASGFTYTDYYMNWVRQPPGKALEWLALIRNKANGYTTEYSASLKGRFTISRDNSQSILYLQMNALRAEDSATYYCVRENINYYFDYWGQGTTLTVSS
VL: DIVLTQSPASLAVSLGQRATISCRASESVEYFGASLMQWYQQKSGQPPKLLIRAATNVESGVPARFSGSGSGTDFSLNIHPVEEDDIAMYFCQQSRKVPWTFGGGTKLEIKR
notes: Mouse hybridoma mAb, fusions 20/21 (PIN628 V regions)
